Measured values reported in patent US20250019450A1 (DIAGONAL THERAPEUTICS, published 2025).

How the values were obtained:
[1] = molecular target: T1, IL-12 receptor endogenously expressed on THP-1 cells (UniProt P42701 24-662; Q99665 24-862); test: FACS, hybridoma supernatant, THP-1
T1 construct: whole, on cells

[2] = molecular target: T2, human IL-12RB1 overexpressed on 293T cells (Example 2) (human, UniProt P42701 24-662); test: FACS, hybridoma supernatant, 293T
T2 construct: whole, on cells

[3] = molecular target: T3, cyno IL-12RB1 overexpressed on 293T cells (Example 2) (cyno, UniProt A0A2K5VWV1 24-662); test: FACS, hybridoma supernatant, 293T
T3 construct: whole, on cells

| Binder | Fold over buffer [1] [fold] | Fold over parental 293T [2] [fold] | Fold over parental 293T [3] [fold] |
| --- | --- | --- | --- |
| 85801_07A01 (antibody, V domains shown, also called 85801_07A01A) VH: EVQLVESGGGLVQPGGSLRLSCAASGFTFSSYWMSWVRQAPGKGLEWVANIKQDGSEKYYVDSVKGRFTISRDNAKNSLYLQMNSLRAEDTAVYYCAREGLQLGIFDYWGQGTLVTVSS VL: not shown | 37 | 57 | 21 |
| 85801_04M04 (antibody, V domains shown, also called 85801_04M04A) VH: QVQLVQSGAEVKKPGASVRVSCKASGYTFTSYYIHWVRQAPGQGLEWMGIINPSGGSTSYAQKFQGRVTMTRDTSTTTVYMELSSLRSEDTAVYYCAKSNWAYAFDIWGQGTMVTVSS VL: SSELTQDPAVSVALGQTVRITCQGDSLSSYYAGWYQQKPGQAPVLVIYGKNNRPSGIPDRFSGSSSEDTASLTITGAQAEDEADYYCNSRDSSDNHLVFGGGTKLTVL | 12 | 620 | 195 |
| 85801_04M12 (antibody, V domains shown, also called 85801_04M12A) VH: QVQLVESGGGVVQPGRSLRLSCAASGFTFSSHGMHWVRQAPGKGLEWVAIIWYAGNKKYYADSVKGRFTISRDNSKNTLYLQMNSLRAEDTAVYYCARESLLNSASDIWGQGTMVTVSS VL: QSVLTQPPSVSAAPGQTVTISCSGSSSNIGNNYVSWYQQLPGTAPKLLIYDNNKRPSGIPDRFSGSKSGTSATLGITGLQTGDEADYYCGTWDSSLSAVVFGGGTKLTVL | 45 | 192 | 71 |
| 85801_05F05 (antibody, V domains shown, also called 85801_05F05A) VH: QVQLQQWGAGLLKPSETLSLTCAVYGGSFSGYYWNWIRQPPGKGLEWIGEINHSGSTHYNPSLKSRVTISVDTSKNQFSLKLSSVTAADTALYYCARALTGYFDYWGQGTLVTVSS VL: not shown | 56 | 311 | 118 |
| 85801_03P23 (antibody, V domains shown, also called 85801_03P23A) VH: EVQLVESGGGLVQPGGSLRLSCAASGFTFSSYWMSWVRQAPGKGLEWVANIKQDGSEKYYVDSVKGRFTISRDNAKNSLYLQMNSLRAEDTAVYYCARGSIAAPFDYWGQGTLVTVSS VL: not shown | 39 | 69 | 23 |
| 85801_02K24 (antibody, V domains shown, also called 85801_02K24A) VH: QVQLQESGPGLVKPSETLSLTCTVSGGSISSYDWSWIRQSAGKGLEWIGRIYTSGSTIYNPSLKSRVTMSVDTSKNEISLKLSSVTAADTAFYYCAKDRGNYPHDAFDIWGQGTMITVSS VL: DIQLTQSPSFLSASVGDRVTITCRASQGISSFLAWYQQKPGKAPKLLIYAASTLQSGVPSRFSGSGSGTEFTLTISSLQPEDFATYYCQQLNGYPFTFGPGTKVDIK | 33 | 130 | 53 |
| 85801_10F19 (antibody, V domains shown, also called 85801_10F19A) VH: QVQLVQSGAEVRKPGASVKVSCKASGYTFTDYYMHWVRQAPGQGREWMGWINPNSGGTHYAQKFQGRVTMTWDTSISTAYMELSRLRSDDTAVYYCAREGATTVYFDYWGQGTLVTVSS VL: DIQLTQSPSFLSASVGDRVTLTCRASQGINNYLAWYQEKPGKAPNPLIYDASTLQSGVPSRFSGSGSGTEFTLTISSLQPEDFATYYCQQLNMYPYTFGQGTKLEIK | 8 | 41 | 16 |
| 85801_01L02 (antibody, V domains shown, also called 85801_01L02A) VH: QVQLVHSGPEVKKPGASVKVSCKASGYTFTDYYMHWVRQAPGQGLEWMGWINPDSGGTNYAQKFQGRVTMTRDTSISTAYMELSRLRSDDTAVYHCAREGATSNFDYWGQGTLVTVSS VL: DIQMTQSPSSLSASVGDRVTITCRASQGISNYLAWFQQKPGKAPTSLIYAASNLQGGVPSKFSGSGSGTDFTLTISSLQPEDFATYYCQQYRYYPFTFGPGTKVDIK | 41 | 117 | 32 |
| 85801_04D10 (antibody, V domains shown, also called 85801_04D10A) VH: EVQLLESGGGLVQPGGSLRLSCAASGFTFSSYAMSWVRQAPGKGLEWVAGISGSGGGIYYADSVKGRFTISRDNSKNTLYLQLNSLRADDTAVYYCARRLIGYWYFDLWGRGTLVPVSS VL: DIQMTQSPSSLSASVGDRVTITCRASQGISNYLAWFQQKPGKAPKSLIYAASSLQSGVPSKFSGSGSGTDFTLTISSLQPEDFATYYCQQYNSYPPTFGGGTKVEIK | 42 | 76 | 20 |
| 85801_06L19 (antibody, V domains shown, also called 85801_06L19A) VH: QVQLVQSGAEVKKPGASVKVSCKASGYTFTDYYIHWVRQAPGQGLEWMGWINPDSGGTHYAQKFQGRVTMTRDTSISTVYMDLSRLRSDDTAVYYCAREGEGLASFDSWGQGTLVTVSS VL: DIQMTQSPSSLSASVGNRVTITCRASQGINNYLAWFQQKPGKAPKSLIYAASSLQSGVPSKFSGSGSGTDFTLTISSLQPEDFATYYCQQYNNYPFTFGPGTKVDIK | 9 | 73 | 25 |

The remaining lines, values ahead:

| Fold over buffer [1] [fold] | Fold over parental 293T [2] [fold] | Fold over parental 293T [3] [fold] | Binder |
| --- | --- | --- | --- |
| 35 | 114 | 56 | 85801_02011 (antibody, V domains shown, also called 85801_02O11A) VH: EVQLVESGGGLVQPGGSLRLSCAASGFTFSSYDMNWVRQAPGKGLEWISYINSRSSTIYYADSVKGRFTISRDNAKNSLYLQMNSLRDEDTALYYCAREIEDSMDVWGQGTTVTVSS VL: QSVLTQPPSVSAAPGQKVTISCSGSSSNIGNNYVSWYQQLPGTAPKLLIYDNNERPSGIPDRFSGSKSGTSATLGITGLQPGDEADYYCGTWDSSLSAGVFGGGTKLTVL |
| 46 | 73 | 27 | 85801_04G23 (antibody, V domains shown, also called 85801_04G23A) VH: QVQLVESGGGVVQPGRSLRLSCAASGFTFSSYGMHWVRQAPGKGLEWVAVIWNDGSNKYYADSVKGRFTISRDNSKNTLYLQMNSLRAEDTAVYYCARGELFFDYWGQGTLVTVSS VL: not shown |
| 24 | 116 | 52 | 85801_01D14 (antibody, V domains shown, also called 85801_01D14A) VH: EVQLVESGGGLVKPGGSLRLSCAASGFTFSNAWMNWVRQAPGKGLEWVGRIKSKTDGGTTDYAAPVKGRFTVSRDDPKNTLYLQMNSLKTEDTAVYYCTTDPGWEFDYWGQGILVTVSS VL: DIQMTQSPSSLSASVGDRVTITCQASQDISNFLNWYQQKPGKAPNLLIYDASDLETGVPSRFSGSGSGTDFTFTISSLQPEDIATYYCQQYDNLPLTFGGGTKVEIK |
| 35 | 58 | 21 | 85801_10M19 (antibody, V domains shown, also called 85801_10M19A) VH: EVQLVESGGGLVQPGGSLRLSCAASGFTFSSYDMHWVRQATGKGLEWVSVIGTAGDTYYPGSVKGRFTISRENAKNSLYLQMNSLRAGDTAVYYCARSRGETDWYFDLWGRGTLVTVSS VL: EIVLTQSPATLSLSPGERATLSCRASQSVSRLLAWYQQKPGQAPRLLIYDASNRATGIPARFSGSGSGTDFTLTISSLEPEDFAVYYCQQRRNWLTFGGGTKVEIK |
| 7 | 170 | 73 | 85801_05G01 (antibody, V domains shown, also called 85801_05G01A) VH: QVQLVQSGAEVKKPGASAKVSCKASGYTFTDYYLHWVRQAPGQGLEWMGWINPNNGGTHYAQKFQGRVTMTRDTSISTAYMELSRLRSDDTAVYYCAREMGGTTAFDYWGQGTLVTVSS VL: DIQMTQSPSSLSASVGDRVTITCRASQGIGNYLAWFQQRPGKAPKSLIYAASSLQSGVPSKFSGSGSGTDFTLTISSLQPADFAIYYCQQYNIYPYTFGPGTRLEIK |
| 38 | 107 | 13 | 85801_01002 (antibody, V domains shown, also called 85801_01O02A) VH: QVQLVQSGAEVRKPGASVKVSCKASGYTFTDYYMHWVRQAPGQGLEWMGWINPDNGGANYAQRFLGRVTMTRDTSISTAYMELSRLRSDDTAVYYCAREGSGSPYAFDLWGLGTVVTVSS VL: DIQLTQSPSFLSASVGDRVTITCRASQGISSYLAWYQQKPGKAPKLLIYAASTLQSGVPSRFSGSGSGTEFTLTISSLQPEDFATYCCQQLNRYPFTFGQGTKLEIK |
| 36 | 336 | 122 | 85801_04M10 (antibody, V domains shown, also called 85801_04M10A) VH: QVQLQESGPGLVKPSETLSLTCTVSGGSISSYYWSWIRQPAGTGLEWIGRFYTSGSTIYNPSLESRVTMSVDTSKNQFSLKLSSVTAADTAVYYCATERDYPHDAFDIWGQGTMVTVSS VL: DIQLTQSPSFLSASVGDRVTIPCRASQDISSFLAWYQQKPGKAPNLLIYAASTLQSGVPSRFSGSGSGTEFTLTISSLQPEDFATYYCQQLNGYPLTFGGGTKVEIK |
| 41 | 221 | 85 | 85801_02N03 (antibody, V domains shown, also called 85801_02N03A) VH: QVHLVQSGAEVKKPGASVKVSCEASGYTFTDYYIHWLRQAPGQGLEWMGWINPNSGGTHYAQKFQGRVTMTRDTSISTAYMELSRLSSDDTAVYYCAREGGWNYFSGMDVWGQGTTVTVSS VL: DIQLTQSPSFLSASVGDRVTITCRASQGISSYLAWYQQQPGKPPKLLIYAASTLHSGVPSRFSGSGSGTEFTLTISSLQPEDFATYYCQQLNRYPYTCGQGTKLEIK |
| 17 | 202 | 44 | 85801_04D14 (antibody, V domains shown, also called 85801_04D14A) VH: QVHLVQSGAEVKKPGASVKVSCKASGYTFIDYYMHWVRQAPGQGLEWMGWINPNSGGTHYSQKFQGRVTMTWDTSISTAYMELSRLTSDDTAVYYCAREGDYISSSAFDYWGQGTLVTVSS VL: DIQLTQSPSFLSASVGDRVTITCRASQGISSYLAWYQQKPGKAPKVLIYAASTLQSGVPSRFSGSGSGTEFTLTISSLLPEDFATYFCQQLHRYPYTFGQGAKLEIK |
| 7 | 91 | 28 | 85801_01M07 (antibody, V domains shown, also called 85801_01M07A) VH: QVQLVQSGAEVKKPGASVKVSCKASEYTFTDDYMHWVRQAPGQGLVWMGWINPNSGGTNYAQKFQGRVTMTRDTSISTAYMELSRLRSDDTAVYYCARGGLNWGWDWFDPWGQGTLVTVSS VL: EIVLTQSPGTLSLSPGERATLSCRASQNINNNYLAWYQRKPGQAPRLLIYGASSRATGIPDRFSGSGSGTDFTLTISRLEPEDFAMYYCQQYGSSLTFGGGTKVEIK |
